Measurements: publication PMC13254535, “The RecBCD complex interacts directly with the DNA sliding clamp in Escherichia coli” (Nucleic Acids Research, 2026)

Key:
[1] = test system: E. coli BTH101 ∆recB strain (IMR04); experiment: Ciprofloxacin survival assay (complementation of BTH101 ΔrecB); type: cell-based, Escherichia coli; conditions: expressed from pUT18C in BTH101 ΔrecB; ciprofloxacin 2–16 ng/ml, 2 h, 37°C; CFU; 2 to 3 biological replicates
Description: (§1) Non-transformed BTH101 and BTH101 ∆recB served as positive and negative controls, respectively. All strains were cultured at 30°C to early exponential phase (OD600 around 0.2, measured by Nanodrop One) before treatment.
. Cultures were incubated at 37°C with shaking for 2 h. Following treatment, cells were pelleted by centrifugation and resuspended in fresh LB medium to remove residual antibiotic and halt exposure. Cultures were then serially diluted 10-fold, and 5 µl of each dilution was spotted onto LB agar plates. After overnight incubation at 30°C, CFUs were counted. […]

[2] = test system: EH219 cells (GFP-β-clamp, RecB-HaloTag); conditions: unchallenged; foci within 1 pixel (0.108 µm); three biological replicates
Description: Fixed cells with endogenously tagged recB and dnaN (strain EH219) were imaged. β-clamp was N-terminally tagged with green fluorescence protein (GFP) [48]
Strains were first grown overnight on LB-agar plates with kanamycin for selection. Then, 2 ml LB with kanamycin was inoculated with five plate colonies to create overnight cultures. The next day, overnight cultures were diluted 1:200 in fresh LB medium with kanamycin and cultured at 37°C until exponential growth (OD600 of 0.10). JF549-HTL (5 µM final concentration) was then added to the culture, and incubation continued for another 60 min for staining the RecB HaloTag, before washing five times with LB. […] Samples were fixed by resuspending and incubating them in PBS with 4% (v/w) formaldehyde for 60 min, followed by washing twice with PBS and resuspension in PBS for imaging.
Briefly, we used a Nikon Eclipse Ti2-E inverted microscope equipped with a 60× oil objective, a CrestOptics X-Light V3 spinning disk confocal module (50:400 µm spinning disk), a Lumencor Celeste multi-line laser and two Teledyne Photometrics Kinetix sCMOS cameras. […] Three channels were used for fluorescence imaging: a transmitted light channel for cell outlines (1 ms exposure), in addition to GFP and JF549 fluorescence channels imaged with a 50:400 µm spinning disk. […] The foci numbers per cell were quantified along with their colocalization. […]

ΔrecA ΔrecB cells = experiment: DNA degradation assay after UV ("reckless" DNA degradation); type: cell-based, Escherichia coli; conditions: expressed from pUT18C in ΔrecA ΔrecB; UV 50 J/m^2, 3 h; Hoechst 33258 microscopy
Description: IMR13 (ΔrecA) served as a positive control for RecB-mediated DNA degradation, while IMR19 (ΔrecA ΔrecB) was used as a negative control.
Overnight cultures were diluted to an OD600 of 0.01 into LB medium supplemented with appropriate antibiotics and incubated with shaking at 37°C until they reached an OD600 of 0.2. Each culture was split into two 1 ml aliquots. One aliquot was fixed immediately in ethanol (50% final concentration) to assess DNA content prior to UV exposure. The second aliquot was pelleted, resuspended in 1× PBS, and exposed to UV light at a dose of 50 J/m^2 (CL-1000 Ultraviolet crosslinker, UVP). […]
Imaging was performed on a Leica DM6000 B fluorescence microscope equipped with a 100× oil immersion objective (Leica HCX Plan Apochromat 100×, 1.40 NA, PH3 CS), a Leica EL6000 metal-halide illumination system, and a Hamamatsu C9100-14 EM-CCD camera. For each sample, six fields of view were acquired, each including both phase-contrast and fluorescence channels. Fluorescence imaging was conducted using a narrow band-pass filter set optimized for CFP (Excitation: 426–446 nm; Emission: 460–500 nm; exposure time: 30 ms). All imaging parameters—including exposure time, illumination intensity, and gain—were kept constant across all strains, treatments, and replicates to ensure quantitative comparability and minimize experimental bias. […]

BTH101 ΔrecB cells = experiment: Western blot of RecB expression level; design: species or system Escherichia coli; conditions: pUT18C constructs in BTH101 ΔrecB; Ponceau S normalized; relative to BTH101 wild type
Description: Samples, including purified RecB, β-clamp (purified as previously explained for co-immunoprecipitation), input (10 µg; 0.5%), and pull-down eluates, and samples from BTH101 cultures used in survival assays, were mixed with 1 mM dithiothreitol (DTT) and 1× NuPAGE LDS sample buffer, then heated to 75°C for 10 min. […] SeeBlue Plus2 Pre-stained Protein Standard (Invitrogen) was used as a molecular weight marker.
Proteins were transferred onto 0.2-µm nitrocellulose membranes using the Trans-Blot Turbo Transfer System (Bio-Rad), and membranes were blocked in 5% (w/v) skim milk (Merck) in PBS-T (PBS with 0.1% Tween-20) for 45–60 min at room temperature. […] Following protein transfer, these membranes were also incubated in 0.1% (w/v) Ponceau S solution for 5 min to verify transfer efficiency and account for total protein loading. The stain was visualized, imaged for densitometric normalization, and subsequently removed by washing with deionized water prior to blocking. […]
Relative RecB levels were quantified from the western blot images using Fiji (ImageJ) [58]. […] The lane profiles were plotted, and the measured signal from each lane was first normalized to the relevant Ponceau stain signal from the same lane and then to the wild-type strain.

[3] = test system: E. coli BTH101 ∆recB strain (IMR04); experiment: UV survival assay (complementation of BTH101 ΔrecB); type: cell-based, Escherichia coli; conditions: expressed from pUT18C in BTH101 ΔrecB; UV 5, 15 or 30 J/m^2; CFU; 2 to 3 biological replicates
Description: as §1
For UV exposure, bacterial cultures were serially diluted 10-fold in LB. From each dilution, 5 µl was spotted onto four separate LB agar plates supplemented with IPTG (0.5 mM) and the appropriate antibiotics. Once droplets had dried, one plate was kept unexposed as a control, while the remaining three plates were subjected to UV irradiation at doses of 5, 15, or 30 J/m^2 using an CL-1000 ultraviolet crosslinker (UVP). Plates were incubated overnight at 30°C, after which colony-forming units (CFUs) were counted. Survival at each UV dose was calculated as the ratio of CFUs on the UV-exposed plates to CFUs on the unexposed control plate.

β-clamp = β-clamp (Escherichia coli, UniProt P0A988); conditions: 3-AT 0.5 mM; ~29 million interaction tests
Sequence of β-clamp (P0A988 whole entry): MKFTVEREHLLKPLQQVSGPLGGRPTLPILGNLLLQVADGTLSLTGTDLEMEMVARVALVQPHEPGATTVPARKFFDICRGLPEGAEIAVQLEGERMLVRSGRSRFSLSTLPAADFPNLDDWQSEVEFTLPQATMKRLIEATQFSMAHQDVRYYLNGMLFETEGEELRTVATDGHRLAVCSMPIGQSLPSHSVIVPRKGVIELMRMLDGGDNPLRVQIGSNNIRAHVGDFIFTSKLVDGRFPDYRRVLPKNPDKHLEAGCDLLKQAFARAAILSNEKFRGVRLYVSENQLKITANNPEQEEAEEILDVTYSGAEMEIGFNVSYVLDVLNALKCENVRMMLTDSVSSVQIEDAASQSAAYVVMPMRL
Description: Yeast-two hybrid screening was outsourced to Hybrigenics (Paris, France). This service employs a high-complexity E. coli prey library (∼3 × 10^7 clones) and follows a robust mating-based screening protocol to identify binary protein interactions. Full-length E. coli dnaN (encoding β-clamp) was cloned into the Gal4 DNA-binding domain expression vector pGBKT7, which carries LEU2 and TRP1 selection markers (bait plasmid). The dnaN bait was screened against an E. coli complementary DNA/genomic prey library provided by Hybrigenics, totaling ~29 million interaction tests. Transformants were selected on medium lacking leucine, tryptophan, and histidine, supplemented with 0.5 mM of 3-amino-1,2,4-triazole (3-AT) to suppress background growth. Positive interactions were confirmed and sequenced by Hybrigenics.

B1: RecB: wild type RecB subunit of the E. coli RecBCD complex (T18 fusion, his-tagged or HaloTag according to test) (protein)
chain: MSDVAETLDPLRLPLQGERLIEASAGTGKTFTIAALYLRLLLGLGGSAAFPRPLTVEELLVVTFTEAATAELRGRIRSNIHELRIACLRETTDNPLYERLLEEIDDKAQAAQWLLLAERQMDEAAVFTIHGFCQRMLNLNAFESGMLFEQQLIEDESLLRYQACADFWRRHCYPLPREIAQVVFETWKGPQALLRDINRYLQGEAPVIKAPPPDDETLASRHAQIVARIDTVKQQWRDAVGELDALIESSGIDRRKFNRSNQAKWIDKISAWAEEETNSYQLPESLEKFSQRFLEDRTKAGGETPRHPLFEAIDQLLAEPLSIRDLVITRALAEIRETVAREKRRRGELGFDDMLSRLDSALRSESGEVLAAAIRTRFPVAMIDEFQDTDPQQYRIFRRIWHHQPETALLLIGDPKQAIYAFRGADIFTYMKARSEVHAHYTLDTNWRSAPGMVNSVNKLFSQTDDAFMFREIPFIPVKSAGKNQALRFVFKGETQPAMKMWLMEGESCGVGDYQSTMAQVCAAQIRDWLQAGQRGEALLMNGDDARPVRASDISVLVRSRQEAAQVRDALTLLEIPSVYLSNRDSVFETLEAQEMLWLLQAVMTPERENTLRSALATSMMGLNALDIETLNNDEHAWDVVVEEFDGYRQIWRKRGVMPMLRALMSARNIAENLLATAGGERRLTDILHISELLQEAGTQLESEHALVRWLSQHILEPDSNASSQQMRLESDKHLVQIVTIHKSKGLEYPLVWLPFITNFRVQEQAFYHDRHSFEAVLDLNAAPESVDLAEAERLAEDLRLLYVALTRSVWHCSLGVAPLVRRRGDKKGDTDVHQSALGRLLQKGEPQDAAGLRTCIEALCDDDIAWQTAQTGDNQPWQVNDVSTAELNAKTLQRLPGDNWRVTSYSGLQQRGHGIAQDLMPRLDVDAAGVASVVEEPTLTPHQFPRGASPGTFLHSLFEDLDFTQPVDPNWVREKLELGGFESQWEPVLTEWITAVLQAPLNETGVSLSQLSARNKQVEMEFYLPISEPLIASQLDTLIRQFDPLSAGCPPLEFMQVRGMLKGFIDLVFRHEGRYYLLDYKSNWLGEDSSAYTQQAMAAAMQAHRYDLQYQLYTLALHRYLRHRIADYDYEHHFGGVIYLFLRGVDKEHPQQGIYTTRPNAGLIALMDEMFAGMTLEEA
modifications: left off: T18 (Bordetella pertussis CyaA fragment), N-terminal, kept
In the case of B1, the “survival after ciprofloxacin” value [1] is reported as “fully restores ΔrecB strain survival to the wild-type strain (BTH101) level”, the “cells showing RecB–β-clamp colocalization” value [2] is reported as “around 32%” and the “reckless DNA degradation after UV” value (ΔrecA ΔrecB cells) is reported as “restored the reckless degradation phenotype, comparable to that of the ΔrecA strain”. The “RecB expression level relative to endogenous RecB” value (BTH101 ΔrecB cells) was “more than eight times higher”, the “survival after UV” value [3] was “fully restores ΔrecB strain survival to the wild-type strain (BTH101) level” and the “yeast two-hybrid interaction with β-clamp” value (β-clamp) was “possible interaction”.
